System: Akt-Kinase
Assay: Akt-Kinase (Ser473) phosphorylation ELISA
Type: cell-based
Conditions: 400 ng/ml Gas6
Description: Furthermore, ELISA experiments were performed in order to investigate whether the rat anti-AXL antibodies of the invention are able to block ligand Gas6-mediated activation of Akt-Kinase. Gas6-mediated Akt-Kinase activation was detected by increased protein (Ser473) phosphorylation. In brief, on day 1. 2×10^4 cells per well were seeded in flat-bottom 96 well plates. The next day, normal growth medium was replaced by serum-reduced (DMEM, 0.5% FCS for NIH3T3-AXL cl.7 fibroblasts) or serum-free (for cancer cell lines) medium to starve cells for 36 h. […] Medium was flicked out and cells were fixed with 4% formaldehyde in PBS (pH 7.5) for 30 min at room temperature. Formaldehyde solution was removed and cells were washed twice with wash buffer (PBS, 0.1% Tween 20). […] Tetramethylbenzidine (TMB, Calbiochem) was added and monitored at 620 nm.
In order to investigate whether the rat anti-AXL antibodies of the invention and the corresponding chimeric anti-AXL antibodies of the invention were able to block ligand Gas6-mediated activation of the Akt-Kinase in NIH3T3-AXL cl.7 fibroblasts to similar extent, ELISA experiments were performed. Antibody-mediated Akt-Kinase inhibition was detected by decreased protein (Ser473) phosphorylation. […] Tetramethylbenzidine (TMB, Calbiochem) was added and monitored at 620 nm.

B1: 11B7: antagonistic rat anti-AXL monoclonal antibody, rat IgG1 (antibody, V domains shown)
VL: DIQMTQAPSSLPASLGDRVTITCRASQDIGNYLRWFQQKPGKSPRLMISGATNLAAGVPSRFSGSRSGSDYSLTISSLESEDMADYYCLQSKESPWTFGGGTKLELK
VH: EVQLQESGPGLVKPSQSLSLTCSVTGYSITSNYWGWIRKFPGDKMEWMGYITYSGSTSYNPSLKSRISITRDTSKNQFFLQLNSVTSEDTATYYCAITTFYYWGQGVMVTVSS
50 ng/ml to 1 μg/ml (11B7, ch11B7) or to 10 μg/ml (11D5, ch11D5), NIH3T3-AXL cl.7
  ligand-mediated Akt-Kinase activation, rat versus chimeric antibody: able to inhibit ligand-mediated Akt-Kinase activation to similar extent
10 μg/ml antibody, NIH3T3-AXL cl.7 fibroblasts and CaLa-1 lung cancer cells
  ligand-mediated Akt-Kinase activation (phosphorylation): able to block or reduce ligand-mediated Akt-Kinase activation

From patent US8933202B2, “AXL antibodies” (U3 Pharma GmbH, priority 2007, dated 2015)
